From the supplement of paper PMC10065799, “High-throughput profiling of sequence recognition by tyrosine kinases and SH2 domains using bacterial peptide display” (eLife, 2023)

What follows are sequences tested against EPHB2 (UniProt P29323) (assay: phosphorylation enrichment, bacterial display (enrichment ratio); higher = better substrate or ligand; peptides without Tyr show the background).
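Also: 11-residue human phosphosite peptides and single-mutation variants displayed on the E. coli surface, counted by deep sequencing, each peptide's frequency after selection divided by its frequency in the unselected input library; frequency after pTyr selection over input frequency; kinase dosed for 20-30% of maximal phosphorylation in three min.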

EPHB2, sequence (P29323 whole entry, looked up): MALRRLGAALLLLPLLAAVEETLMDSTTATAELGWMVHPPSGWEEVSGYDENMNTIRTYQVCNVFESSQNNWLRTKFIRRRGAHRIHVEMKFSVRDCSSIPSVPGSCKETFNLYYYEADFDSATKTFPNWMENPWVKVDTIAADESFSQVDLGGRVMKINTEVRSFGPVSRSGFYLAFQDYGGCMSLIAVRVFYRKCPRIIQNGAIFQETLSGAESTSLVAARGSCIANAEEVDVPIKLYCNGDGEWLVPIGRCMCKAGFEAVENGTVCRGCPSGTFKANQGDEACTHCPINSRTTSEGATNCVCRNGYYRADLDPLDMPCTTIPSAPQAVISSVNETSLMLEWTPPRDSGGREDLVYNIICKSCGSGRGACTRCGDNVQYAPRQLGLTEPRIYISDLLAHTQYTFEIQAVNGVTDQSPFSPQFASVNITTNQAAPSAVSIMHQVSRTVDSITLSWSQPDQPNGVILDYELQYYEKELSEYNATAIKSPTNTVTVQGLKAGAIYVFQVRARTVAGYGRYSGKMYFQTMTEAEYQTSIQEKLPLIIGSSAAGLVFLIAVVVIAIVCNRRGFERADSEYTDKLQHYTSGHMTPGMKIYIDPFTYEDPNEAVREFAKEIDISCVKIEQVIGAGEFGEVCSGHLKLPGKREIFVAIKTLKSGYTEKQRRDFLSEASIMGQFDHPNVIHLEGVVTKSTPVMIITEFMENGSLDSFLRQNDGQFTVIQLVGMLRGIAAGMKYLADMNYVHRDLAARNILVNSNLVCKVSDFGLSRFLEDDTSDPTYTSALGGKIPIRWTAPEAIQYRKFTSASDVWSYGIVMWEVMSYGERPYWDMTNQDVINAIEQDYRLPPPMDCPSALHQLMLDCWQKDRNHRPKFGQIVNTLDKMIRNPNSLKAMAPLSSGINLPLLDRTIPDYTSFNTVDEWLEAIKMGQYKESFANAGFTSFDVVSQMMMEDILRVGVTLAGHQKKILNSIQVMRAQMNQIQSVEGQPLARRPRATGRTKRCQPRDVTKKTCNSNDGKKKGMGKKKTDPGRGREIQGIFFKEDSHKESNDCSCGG

Sequence | phosphorylation enrichment
GYKVRYATWSI [FGFR1_Y210] | 0.425
SGPRRYTMAAL [TTR_Y125_I127M] | 0.466
DERQPYAHMNG [IGF1R_Y1346] | 0.362
VATSWYRSPEL [CDKL5_Y177_R175S] | 0.435
DEWFLYKMRDI [CPS1_Y879_K875E] | 0.585
AFHGEYIPTVF [RAC2_Y32_P29H] | 0.447
REENGYNTYAS [FGF10_Y161_I156R] | 0.962
WFISFYPQVIM [CTNS_Y143_S139F] | 0.637
AFQGKYTPSGQ [ALDOA_Y343_C339Y_YF] | 0.276
AKKVFYVNETR [SHH_Y253_I255N] | 0.448
ESTPLYPMLFG [SCLY_Y280_F276S] | 0.508
EFISEHCGEII [EZH2_Y641_Y641H] | 0.644
KELAPYDENRF [RPS19_Y48_W52R] | 0.553
LALTVYADCLA [ABCA4_Y2063_G2059A] | 0.938
ETKENYGKTLK [CHL1_Y291] | 0.297
RHPLDYLRQFP [NARS2_Y138_E137D_YF] | 0.583
LASSEYPVRRR [GALK1_Y236] | 0.472

Sequence | phosphorylation enrichment
QEIATYRPLLE [KRT14_Y415_R417P] | 0.65
QGLRLYRPHLA [BTK_Y617] | 0.697
HNLDYYKMTTN [FGFR3_Y648_K650M] | 1.2
SVTCTYSAALN [TP53_Y126_P128A] | 0.803
PEVRRCVLPLN [RPE65_Y368_Y368C] | 0.487
LARHMYDKEYY [MET_Y1230_D1228H] | 0.811
RLFARYFQGDL [PDK3_Y337_YF] | 0.547
DRPASYLDKVR [KRT17_Y98_L95P] | 0.396
VRRRSYSAGNA [KANK1_Y324_K321R] | 0.603
ALAAPYVLFPS [CEFIP_Y1332_G1337S_YF] | 0.502
GCCSWYRGWAP [TIMP3_Y195_Y191C] | 0.565
DEEYEYMNRRR [ERBB3_Y1199] | 0.503
EVTQDYGLDPK [FH_Y110_N107T] | 0.637
VVQGIYGYHHH [UFSP2_Y285_Y290H] | 2.92
PVRIAYDRPRG [SUGP2_Y985] | 0.691
LNNIIYRVERA [CUX2_Y1470] | 0.958

What follows are sequences tested against FGFR1 (UniProt P11362) in the same assay as above.
FGFR1, sequence (P11362 whole entry, looked up): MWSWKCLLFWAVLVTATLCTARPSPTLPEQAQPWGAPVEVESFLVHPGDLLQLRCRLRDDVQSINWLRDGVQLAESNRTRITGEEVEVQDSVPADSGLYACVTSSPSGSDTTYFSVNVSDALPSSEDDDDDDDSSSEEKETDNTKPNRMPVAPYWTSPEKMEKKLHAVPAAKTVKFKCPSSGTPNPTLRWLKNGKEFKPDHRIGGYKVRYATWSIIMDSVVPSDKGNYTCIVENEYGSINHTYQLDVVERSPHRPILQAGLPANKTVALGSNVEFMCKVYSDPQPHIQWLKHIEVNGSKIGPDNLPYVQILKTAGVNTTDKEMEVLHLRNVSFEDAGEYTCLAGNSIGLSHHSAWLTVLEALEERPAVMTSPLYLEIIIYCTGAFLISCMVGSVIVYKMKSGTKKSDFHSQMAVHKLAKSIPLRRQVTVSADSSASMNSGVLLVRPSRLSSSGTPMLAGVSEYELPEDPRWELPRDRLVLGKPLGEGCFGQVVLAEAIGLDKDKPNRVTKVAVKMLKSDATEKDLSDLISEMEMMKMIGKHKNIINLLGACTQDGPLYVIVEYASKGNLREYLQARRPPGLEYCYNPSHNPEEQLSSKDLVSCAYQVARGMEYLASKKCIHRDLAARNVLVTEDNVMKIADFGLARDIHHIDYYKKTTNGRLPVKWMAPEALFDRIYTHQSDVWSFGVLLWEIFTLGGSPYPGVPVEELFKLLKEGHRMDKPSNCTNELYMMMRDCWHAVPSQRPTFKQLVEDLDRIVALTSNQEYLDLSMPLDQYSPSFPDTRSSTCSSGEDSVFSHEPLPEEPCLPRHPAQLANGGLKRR

Sequence | phosphorylation enrichment
GYKVRYATWSI [FGFR1_Y210] | 0.519
SGPRRYTMAAL [TTR_Y125_I127M] | 0.423
DERQPYAHMNG [IGF1R_Y1346] | 0.45
VATSWYRSPEL [CDKL5_Y177_R175S] | 0.553
DEWFLYKMRDI [CPS1_Y879_K875E] | 0.503
AFHGEYIPTVF [RAC2_Y32_P29H] | 0.602
REENGYNTYAS [FGF10_Y161_I156R] | 0.761
WFISFYPQVIM [CTNS_Y143_S139F] | 0.485
AFQGKYTPSGQ [ALDOA_Y343_C339Y_YF] | 0.309
AKKVFYVNETR [SHH_Y253_I255N] | 0.42
ESTPLYPMLFG [SCLY_Y280_F276S] | 11.7
EFISEHCGEII [EZH2_Y641_Y641H] | 0.544
KELAPYDENRF [RPS19_Y48_W52R] | 0.48
LALTVYADCLA [ABCA4_Y2063_G2059A] | 0.665
ETKENYGKTLK [CHL1_Y291] | 0.325
RHPLDYLRQFP [NARS2_Y138_E137D_YF] | 0.429
LASSEYPVRRR [GALK1_Y236] | 0.45

Sequence | phosphorylation enrichment
QEIATYRPLLE [KRT14_Y415_R417P] | 0.78
QGLRLYRPHLA [BTK_Y617] | 0.501
HNLDYYKMTTN [FGFR3_Y648_K650M] | 17.7
SVTCTYSAALN [TP53_Y126_P128A] | 0.552
PEVRRCVLPLN [RPE65_Y368_Y368C] | 0.495
LARHMYDKEYY [MET_Y1230_D1228H] | 0.799
RLFARYFQGDL [PDK3_Y337_YF] | 0.572
DRPASYLDKVR [KRT17_Y98_L95P] | 0.465
VRRRSYSAGNA [KANK1_Y324_K321R] | 0.549
ALAAPYVLFPS [CEFIP_Y1332_G1337S_YF] | 2.56
GCCSWYRGWAP [TIMP3_Y195_Y191C] | 1.38
DEEYEYMNRRR [ERBB3_Y1199] | 0.501
EVTQDYGLDPK [FH_Y110_N107T] | 0.558
VVQGIYGYHHH [UFSP2_Y285_Y290H] | 0.541
PVRIAYDRPRG [SUGP2_Y985] | 0.384
LNNIIYRVERA [CUX2_Y1470] | 0.825
